Data from paper PMC8892280 (Proceedings of the National Academy of Sciences of the …, 2022).

How the values were obtained:
[1] = target: T1, full-length human LRRK2 (leucine-rich repeat kinase 2) (human, UniProt Q5S007); test: MST
[2] = target: LRRK2 N-terminal armadillo (ARM) domain construct (Homo sapiens, UniProt Q5S007); test: ELISA
endogenous (mouse) LRRK2 = endogenous (mouse) LRRK2 (Mus musculus, UniProt Q5S006); test: pull-down
[3] = target: LRRK2 RocCOR domain construct (Homo sapiens, UniProt Q5S007); test: ELISA
LRRK2 Roc domain = LRRK2 Roc domain (Homo sapiens, UniProt Q5S007); test: ELISA
[4] = target: LRRK2 C-terminal subdomain of COR (COR-B) (Homo sapiens, UniProt Q5S007); test: ELISA
[5] = target: LRRK2 kinase-WD40 (K-WD40) two-domain construct (Homo sapiens, UniProt Q5S007); test: ELISA
[6] = target: LRRK2 Roc-COR-Kinase-WD40 (RCKW) domain construct (Homo sapiens, UniProt Q5S007, biotinylated (in the BLI experiment)); test: BLI
[7] = target: T1, full-length human LRRK2 (leucine-rich …); test: BLI
[8] = target: T1, full-length human LRRK2 (leucine-rich …); test: enzyme kinetics
[9] = target: T1, full-length human LRRK2 (leucine-rich …); test: MST; remark: listed apart in the source
[10] = target: T1, full-length human LRRK2 (leucine-rich …); test: ELISA

LRRK2 RocCOR domain construct, sequence (Q5S007 whole entry, looked up, the tested form may be a part): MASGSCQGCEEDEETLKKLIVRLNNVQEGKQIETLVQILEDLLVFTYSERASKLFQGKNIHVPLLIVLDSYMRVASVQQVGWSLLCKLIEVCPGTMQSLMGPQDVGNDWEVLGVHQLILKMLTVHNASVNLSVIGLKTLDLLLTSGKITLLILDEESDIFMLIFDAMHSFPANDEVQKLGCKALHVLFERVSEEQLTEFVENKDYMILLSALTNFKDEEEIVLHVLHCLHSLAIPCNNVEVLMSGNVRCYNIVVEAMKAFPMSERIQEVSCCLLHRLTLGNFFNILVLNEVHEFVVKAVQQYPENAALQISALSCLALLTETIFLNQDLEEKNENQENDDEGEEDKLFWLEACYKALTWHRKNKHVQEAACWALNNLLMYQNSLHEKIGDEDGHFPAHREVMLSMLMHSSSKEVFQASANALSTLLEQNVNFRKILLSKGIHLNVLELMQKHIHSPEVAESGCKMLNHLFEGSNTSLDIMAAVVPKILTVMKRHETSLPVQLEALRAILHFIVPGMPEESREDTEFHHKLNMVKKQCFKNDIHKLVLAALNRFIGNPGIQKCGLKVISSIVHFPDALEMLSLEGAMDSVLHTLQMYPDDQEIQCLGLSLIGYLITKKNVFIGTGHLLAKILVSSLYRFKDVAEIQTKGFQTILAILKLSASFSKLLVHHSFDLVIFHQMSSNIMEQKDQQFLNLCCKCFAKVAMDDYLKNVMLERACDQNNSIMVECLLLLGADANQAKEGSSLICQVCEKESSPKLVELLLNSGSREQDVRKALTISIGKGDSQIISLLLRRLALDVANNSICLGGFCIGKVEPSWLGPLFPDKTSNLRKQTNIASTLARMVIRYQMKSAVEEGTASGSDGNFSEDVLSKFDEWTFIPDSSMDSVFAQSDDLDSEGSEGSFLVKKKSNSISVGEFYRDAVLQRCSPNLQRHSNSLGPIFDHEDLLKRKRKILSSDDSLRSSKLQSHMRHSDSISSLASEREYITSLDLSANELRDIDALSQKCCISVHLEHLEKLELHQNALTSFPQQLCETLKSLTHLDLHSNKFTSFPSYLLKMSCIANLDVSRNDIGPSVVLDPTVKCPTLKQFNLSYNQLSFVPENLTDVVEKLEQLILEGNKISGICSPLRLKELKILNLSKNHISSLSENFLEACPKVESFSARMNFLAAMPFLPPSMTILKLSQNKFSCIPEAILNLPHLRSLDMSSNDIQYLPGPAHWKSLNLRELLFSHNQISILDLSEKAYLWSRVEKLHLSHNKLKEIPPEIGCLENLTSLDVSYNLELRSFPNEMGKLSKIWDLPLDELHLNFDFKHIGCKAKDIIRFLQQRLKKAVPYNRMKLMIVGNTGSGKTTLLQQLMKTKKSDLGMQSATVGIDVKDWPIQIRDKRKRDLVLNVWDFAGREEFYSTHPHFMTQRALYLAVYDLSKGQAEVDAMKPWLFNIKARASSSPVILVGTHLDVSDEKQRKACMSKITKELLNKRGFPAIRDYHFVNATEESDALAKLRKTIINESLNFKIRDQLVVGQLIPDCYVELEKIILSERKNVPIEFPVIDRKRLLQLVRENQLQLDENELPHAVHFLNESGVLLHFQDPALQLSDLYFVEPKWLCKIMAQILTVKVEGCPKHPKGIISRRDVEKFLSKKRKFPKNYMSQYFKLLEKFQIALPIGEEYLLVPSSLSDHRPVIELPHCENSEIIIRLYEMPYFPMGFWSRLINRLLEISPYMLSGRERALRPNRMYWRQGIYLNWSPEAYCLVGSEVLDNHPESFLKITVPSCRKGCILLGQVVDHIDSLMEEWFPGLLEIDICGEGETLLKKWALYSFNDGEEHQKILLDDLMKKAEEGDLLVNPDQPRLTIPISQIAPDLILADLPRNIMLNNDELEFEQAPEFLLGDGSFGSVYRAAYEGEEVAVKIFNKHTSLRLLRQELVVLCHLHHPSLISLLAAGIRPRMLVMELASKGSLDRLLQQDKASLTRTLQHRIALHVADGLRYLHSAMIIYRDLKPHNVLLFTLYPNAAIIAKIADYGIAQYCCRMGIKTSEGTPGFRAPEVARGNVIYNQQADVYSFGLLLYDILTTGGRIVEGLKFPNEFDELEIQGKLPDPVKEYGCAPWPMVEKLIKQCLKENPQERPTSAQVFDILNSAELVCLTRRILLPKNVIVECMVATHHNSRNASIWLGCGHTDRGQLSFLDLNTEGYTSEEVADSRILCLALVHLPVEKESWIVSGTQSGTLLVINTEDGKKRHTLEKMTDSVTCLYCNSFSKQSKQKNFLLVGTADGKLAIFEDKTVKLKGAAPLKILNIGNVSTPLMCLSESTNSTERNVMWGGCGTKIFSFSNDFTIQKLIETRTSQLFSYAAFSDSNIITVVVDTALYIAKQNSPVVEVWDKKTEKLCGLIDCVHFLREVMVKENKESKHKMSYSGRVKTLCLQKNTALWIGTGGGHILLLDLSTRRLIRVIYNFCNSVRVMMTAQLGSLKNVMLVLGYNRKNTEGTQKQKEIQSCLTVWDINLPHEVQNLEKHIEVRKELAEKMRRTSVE
LRRK2 kinase-WD40 (K-WD40) two-domain construct, sequence (Q5S007 whole entry, looked up, tested part not stated): as the sequence (Q5S007 whole entry, looked up, the tested form may be a part) above
LRRK2 C-terminal subdomain of COR (COR-B), sequence (Q5S007 whole entry, looked up, tested part not stated): as the sequence (Q5S007 whole entry, looked up, the tested form may be a part) above
T1 sequence (Q5S007 whole entry): as the sequence (Q5S007 whole entry, looked up, the tested form may be a part) above
LRRK2 N-terminal armadillo (ARM) domain construct, sequence (Q5S007 whole entry, looked up, tested part not stated): as the sequence (Q5S007 whole entry, looked up, the tested form may be a part) above
LRRK2 Roc-COR-Kinase-WD40 (RCKW) domain construct, sequence (Q5S007 whole entry, looked up, tested part not stated): as the sequence (Q5S007 whole entry, looked up, the tested form may be a part) above
LRRK2 Roc domain, sequence (Q5S007 1328-1511): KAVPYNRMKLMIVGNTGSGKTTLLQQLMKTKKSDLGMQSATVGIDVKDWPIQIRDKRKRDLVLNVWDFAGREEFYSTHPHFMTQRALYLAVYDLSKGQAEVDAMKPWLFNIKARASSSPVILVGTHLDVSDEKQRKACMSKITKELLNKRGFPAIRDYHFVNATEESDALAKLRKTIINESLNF

Kd [1]	binding result (endogenous (mouse) LRRK2)	Kd [7]	Kd [6]	Binder	also measured
78 ± 25 nM				m-TAMRA-labeled Nb36 (VHH) VHH: QVQLVESGGGLVQPGGSLRLSCAASGSIRSITTSAWFRQPPGKQRELVAGISSGTSTNYADSVKGRFTISRDNAKNTVYLQMNSLKPEDTAVYYCHVWISGTWYSGQGTQVTVSS	
	binds	16 ± 8 nM		Nb36 (VHH) VHH: QVQLVESGGGLVQPGGSLRLSCAASGSIRSITTSAWFRQPPGKQRELVAGISSGTSTNYADSVKGRFTISRDNAKNTVYLQMNSLKPEDTAVYYCHVWISGTWYSGQGTQVTVSS	binding result [2]: no binding; binding result [3]: no binding; binding result (LRRK2 Roc domain): no binding; binding result [4]: no binding; binding result [5]: no binding; binding result [6]: no binding
	binds	37 ± 4 nM		Nb38 (VHH) VHH: QVQLVESGGGLVQPGGSLRLSCAASGSIRSIATSAWYRQPPGKQRELVAGISSGTTTNYADSVKGRFTISRDNAKNTVYLQMNSLKPEDTAVYYCHAWISGTWISGQGTQVTVSS	binding result [2]: no binding; binding result [3]: no binding; binding result (LRRK2 Roc domain): no binding; binding result [4]: no binding; binding result [5]: no binding; binding result [6]: no binding
48 ± 11 nM				m-TAMRA-labeled Nb38 (VHH) VHH: QVQLVESGGGLVQPGGSLRLSCAASGSIRSIATSAWYRQPPGKQRELVAGISSGTTTNYADSVKGRFTISRDNAKNTVYLQMNSLKPEDTAVYYCHAWISGTWISGQGTQVTVSS	
91 ± 28 nM				m-TAMRA-labeled Nb1 (VHH) VHH: QVQLVESGGGLVQAGGSLRLSCVASGRIFSGNAMGWYRQAPGRQRELVAGITNGGYTNYRQFVKGRFTISRDNAKRTVYLQMNSLKPEDTAVYYCNALDREARQVDYWGQGTQVTVSS	
	binds	55 ± 12 nM	39 ± 4 nM	Nb1 (VHH) VHH: QVQLVESGGGLVQAGGSLRLSCVASGRIFSGNAMGWYRQAPGRQRELVAGITNGGYTNYRQFVKGRFTISRDNAKRTVYLQMNSLKPEDTAVYYCNALDREARQVDYWGQGTQVTVSS	Ki [8]: 16000 nM; Kiu^app (apparent Ki for ATP-bound LRRK2) [8]: 30000 nM
83 ± 24 nM				m-TAMRA-labeled Nb6 (VHH) VHH: QVQLVESGGGLVQAGGSLRLSCAASGSIFSPTAMGWYRQAPGKERELVAGITSGGYTNYRNFARGRFTISRDNAKKTVYLQMNSLNPEDTAVYYCNTLTISWSWGQGTQVTVSS	
	binds	8 ± 1 nM	5 ± 1 nM	Nb6 (VHH) VHH: QVQLVESGGGLVQAGGSLRLSCAASGSIFSPTAMGWYRQAPGKERELVAGITSGGYTNYRNFARGRFTISRDNAKKTVYLQMNSLNPEDTAVYYCNTLTISWSWGQGTQVTVSS	Ki [8]: 5000 nM; Kiu^app (apparent Ki for ATP-bound LRRK2) [8]: 8000 nM
	binds	20 ± 5 nM	17 ± 7 nM	Nb23 (VHH) VHH: QVQLVESGGGLVQAGGSLRLSCAASGRTFSRYTMGWFRQAPGKDREFVARITTSGAVTTYADSAKGRFTISRDNAKNTVYLQMNTLKPEDTAVYYCAAGQGQLSSQSRFVDYWGQGTQVTVSS	Ki [8]: 9000 nM; Kiu^app (apparent Ki for ATP-bound LRRK2) [8]: 72000 nM
26 ± 10 nM				m-TAMRA-labeled Nb40 (VHH) VHH: QVQLVESGGGLVQPGGSLRLSCVASGTIYAINRMGWYRQAPGKQRELVALITLGGGTNYGDSVKGRFTISRDNAKNTGYLQMNSLKPEDTAVYYCKVESSGYTDVFWGQGTQVTVSS	
	binds	2.5 ± 0.3 nM	2.6 ± 0.3 nM	Nb40 (VHH) VHH: QVQLVESGGGLVQPGGSLRLSCVASGTIYAINRMGWYRQAPGKQRELVALITLGGGTNYGDSVKGRFTISRDNAKNTGYLQMNSLKPEDTAVYYCKVESSGYTDVFWGQGTQVTVSS	
				m-TAMRA-labeled Nb42 (VHH) VHH: QVQLVESGGGLVQAGGSLRLSCAASGDVNYAVGWFRQAPRKEREFVAAINWRGDNTDYTDSVKGRFTISRDNAKNTVYLQMNSLKPEDTAVYYCAAKSAPYWYSDIAPDYWGQGTQVTVSS	Kd [9]: 94 ± 30 nM
	binds	58 ± 18 nM	18 ± 2 nM	Nb42 (VHH) VHH: QVQLVESGGGLVQAGGSLRLSCAASGDVNYAVGWFRQAPRKEREFVAAINWRGDNTDYTDSVKGRFTISRDNAKNTVYLQMNSLKPEDTAVYYCAAKSAPYWYSDIAPDYWGQGTQVTVSS	
145 ± 55 nM				m-TAMRA-labeled Nb22 (VHH) VHH: QVQLVESGGGLVQAGGSLRLSCAASGRTFSSYTMGWFRQAPGKEREFVAAIRWSGGSTYYADSVKGRFTISRDNAKNTVYLQMNSLKPEDTAVYYCAASDRGGFIATSGGWMDYWGKGTQVTVSS	
	binds	10 ± 1 nM	5 ± 1 nM	Nb22 (VHH) VHH: QVQLVESGGGLVQAGGSLRLSCAASGRTFSSYTMGWFRQAPGKEREFVAAIRWSGGSTYYADSVKGRFTISRDNAKNTVYLQMNSLKPEDTAVYYCAASDRGGFIATSGGWMDYWGKGTQVTVSS	
67 ± 24 nM				m-TAMRA-labeled Nb17 (VHH) VHH: QVQLVESGGGLVQPGGSLRLSCAASGSNIGYMAWYRQAPGSQRELVARIASGGSANYADSVKGRFTISRDNVKNTVYLHMNSLKPVDTAVYYCHADAWYNSRWSDYWGQGTQVTVSS	
	binds	2 ± 0.3 nM		Nb17 (VHH) VHH: QVQLVESGGGLVQPGGSLRLSCAASGSNIGYMAWYRQAPGSQRELVARIASGGSANYADSVKGRFTISRDNVKNTVYLHMNSLKPVDTAVYYCHADAWYNSRWSDYWGQGTQVTVSS	binding result [2]: no binding; EC50 [10]: ~3 nM; EC50 in presence of Rab8a (20 µM) [10]: ~5 nM; binding result [3]: no binding; binding result (LRRK2 Roc domain): no binding; binding result [4]: no binding; binding result [5]: no binding; binding result [6]: no binding
79 ± 19 nM				m-TAMRA-labeled Nb39 (VHH) VHH: QVQLVESGGGLVQAGGSLRLSCRASGGTFSTYAMGWFRQVPGKERETVAAVKWSGDMTYYADSVKGRFTISRDNAKNTVYLQMNSLRPEDTAVYYCAARRGLSYYRGPSEYDYWGQGTQVTVSS	
	binds	12 ± 3 nM		Nb39 (VHH) VHH: QVQLVESGGGLVQAGGSLRLSCRASGGTFSTYAMGWFRQVPGKERETVAAVKWSGDMTYYADSVKGRFTISRDNAKNTVYLQMNSLRPEDTAVYYCAARRGLSYYRGPSEYDYWGQGTQVTVSS	binding result [3]: no binding; binding result (LRRK2 Roc domain): no binding; binding result [4]: no binding; binding result [5]: no binding; binding result [6]: no binding
